1 molecule from PMC3762817, “Therapeutic Targeting of Tumor Growth and Angiogenesis with a Novel Anti-S100A4 Monoclonal Antibody” (PLoS ONE, 2013) can be followed below.

In this test the target is T1, human recombinant RAGE-Fc Chimera (human, UniProt Q15109 23-342).
T1 construct: RAGE (receptor for advanced glycation end products), human; also called RAGE receptor; immobilized RAGE; source: bought: R&D Systems
Nature of the test: SPR; Biacore T100; about 1,000 RU of RAGE-Fc immobilised on a CM5 chip by amine coupling; S100A4 0.625-5 µM passed over at 15 µL/min, 60 s contact time; regeneration with 50 mM NaOH. The settings on record: both partners purified. (In general: Surface plasmon resonance follows binding to a sensor surface in real time, without labels.)

T1 sequence (Q15109 23-342, change not shown): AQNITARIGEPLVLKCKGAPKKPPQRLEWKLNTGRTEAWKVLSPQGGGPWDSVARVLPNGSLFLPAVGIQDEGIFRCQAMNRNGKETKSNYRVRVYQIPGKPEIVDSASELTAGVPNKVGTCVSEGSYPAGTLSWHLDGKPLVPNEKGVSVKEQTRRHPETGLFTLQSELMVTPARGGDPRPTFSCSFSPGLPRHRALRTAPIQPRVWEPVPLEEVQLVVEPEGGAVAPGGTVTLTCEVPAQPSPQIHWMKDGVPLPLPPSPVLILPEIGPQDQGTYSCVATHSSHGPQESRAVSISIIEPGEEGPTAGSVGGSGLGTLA

B1: human recombinant S100A4 (natural protein)
chain: not shown
notes: S100A4, human; The His tag is inferred, and its removal is not mentioned; also called S100A4 fusion protein
With B1, the binding result was “binds”.
